This data set in a line: soluble on expression in E. coli; label from the status in PepcDB or PDB records.
Regarding “MDKEQRNIVVFNASKRELFTSSSGYKSLQKKLRAQWKIQSIKEELTLEKLQGVKLWITAGPREKFTAAELEVLKQYLDSGGALLVMIGEGGELKYDTNINFLLEEFGIMVNNDAVIRNVYYKYFHPKEALVSNGVLNREISRAAGKVVTGVIDEENTGNNSQALTFVYPYGATLNVMKPAVAILSTGSVCFPLNRPVLAFHHSKNAGKLAVLGSCHMFSDQYLDKEENSRIMDVVFQWLTTDSIHLNQIDAEDPEITDYMMLPDTGSLSERLRVCLQEGDENPRDFTSLFDMSLLKLHTNTLPSVLDAYKQLNVKHEALQLITPQFETPLPPLQPAVFQPAFRDLPPPMLDLFDLDETFSSEKVRLAQLSNKCTDDDLEFYVRKCGDILGVTGNLDKDKRDAKHILEHVFFQVVEFKKLNEEHDVDTAEARFSMY”, the “soluble on expression in E. coli” value is listed as “soluble”.
To “MDKIPDIMAKIKTMAPAIRSIDTRTVKVAPKVADAELQSAEYRQWRNAVYRRAGYRCEAIDNGRRCTKAAPAHRLFADHIVERRDGGALLDAANGQCLCGSHHTRKTVAARAARLSSRSRGGGSNLLEHHHHHH” belongs “soluble”; to “MDKRISIAIDGPAAAGKSTVAKVVAKKLSYVYIDTGAMYRTITYAALEQKVDIENEEQLMEVVKNVKIEFQQGENTQLVFLNGQDVSEVIRTPEVTNRVSIVAKHRLVREEMVRRQQELAEKGGVVMDGRDIGTHVLPDAEVKIFMLASVEERAERRHLENMNKGFDSNLEQLKEEIAQRDKLDSEREVSPLKKADDALELDTTSLSIEEVVQKIMGIVLGVFAK”, “not soluble”; to “MDKSTKDFMDLKKIGGDDERERRFSDASDTSMDCHMESIGSRRRDSLIEQFRDFLNRSMDFSVKIDDPFEKEMY”, “not soluble”.
The entry for “MDLAKLGLKEVMPTKINLEGLVGDHAFSMEGVGEGNILEGTQEVKISVTKGAPLPFAFDIVSVAFGYGNRAYTGYPEEISDYFLQSFPEGFTYERNIRYQDGGTAIVKSDISLEDGKFIVNVDFKAKDLRRMGPVMQQDIVGMQPSYESMYTNVTSVIGECIIAFKLQTGKHFTYHMRTVYKSKKPVETMPLYHFIQHRLVKTNVDTASGYVVQHETAIAAHSTIKKIEGSLPVDHHHHHH” is “soluble”; for “MDLKITNGFYDPSHLSYEVVERKGLGHPDTLADGIAEQIEIDYSLYCLDKFGVIPHHNFDKIIIRGGHSVQDFGGSDFIEPIKIIFLGRASKKCFNSSIPLFKIQKKAATKYLNRILPNLDVENYVEFETLTSDFTTKTNWFSPEAIEDLPEYLDVPKANDTATMISYWPLTISEELALMIEGYFYKLDKNELPTPRFTKMGGDIKVMVVRNDLEYSIRINFPLISKFFNNDIESQLYVDKHVEKIKKYIEQKYKNISFSIDYHYYLTTTGSCIDFGEEGAVGRGNKTHGIISSFRPNTMEAPAGKNCTYFVGKVWGFLSDTIAKEIYEAFNTPCQIIMQLNIGSKLYRPTHLFIQTEESVDQERVLEIVNRHLNNGKQNTNLILSTQHFIPKTNVYDG” it is “not soluble”; for “MDLKVVVSLSSRLYTDEIAKMQQRIGCILPLASTHGTQNVQGLGLGQVYSLETVPDYVSMYNYLSDCTLAVLDEVSVDSLILTKIVPGQTYAIKNKYQPFFQWHGTGSLSVMPPVFGREHATVKLESNDVDIVFPMVLPTPIAEEVLQKILLFNVYSRVVMQAPGNADMLDVHMHLGSVSYLGHHYELALPEVPGPLGLALLDNLSLYFCIMVTLLPRASMRLVRGLIRHEHHDLLNLFQEMVPDEIARIDLDDLSVADDLSRMRVMMTYLQSLASLFNLGPRLATAAYSQETLTATCWLR” it is “not soluble”.
To “MDLNFKELAEAKKDAILKDLEELIAIDSSEDLENATEEYPVGKGPVDAMTKFLSFAKRDGFDTENFANYAGRVNFGAGDKRLGIIGHMDVVPAGEGWTRDPFKMEIDEEGRIYGRGSADDKGPSLTAYYGMLLLKEAGFKPKKKIDFVLGTNEETNWVGIDYYLKHEPTPDIVFSPDAEYPIINGEQGIFTLEFSFKNDDTKGDYVLDKFKAGIATNVTPQVTRATISGPDLEAVKLAYESFLADKELDGSFEINDESADIVLIGQGAHASAPQVGKNSATFLALFLDQYAFAGRDKNFLHFLAEVEHEDFYGKKLGIFHHDDLMGDLASSPSMFDYEHAGKASLLNNVRYPQGTDPDTMIKQVLDKFSGILDVTYNGFEEPHYVPGSDPMVQTLLKVYEKQTGKPGHEVVIGGGTYGRLFERGVAFGAQPENGPMVMHAANEFMMLDDLILSIAIYAEAIYELTKDEEL” belongs “soluble”.
For the sequence “MDLPKAYDPKSVEPKWAEKWAKNPFVANPKSGKPPFVIFMPPPNVTGSLHMGHALDNSLQDALIRYKRMRGFEAVWLPGTDHAGIATQVVVERLLLKEGKTRHDLGREKFLERVWQWKEESGGTILKQLKRLGASADWSREAFTMDEKRSRAVRYAFSRYYHEGLAYRAPRLVNWCPRCETTLSDLEVETEPTPGKLYTLRYEVEGGGFIEIATVRPETVFADQAIAVHPEDERYRHLLGKRARIPLTEVWIPILADPAVEKDFGTGALKVTPAHDPLDYEIGERHGLKPVSVINLEGRMEGERVPEALRGLDRFEARRKAVELFREAGHLVKEEDYTIALATCSRCGTPIEYAIFPQWWLRMRPLAEEVLKGLRRGDIAFVPERWKKVNMDWLENVKDWNISRQLWWGHQIPAWYCEDCQAVNVPRPERYLEDPTSCEACGSPRLKRDEDVFDTWFSSALWPLSTLGWPEETEDLKAFYPGDVLVTGYDILFLWVSRMEVSGYHFMGERPFKTVLLHGLVLDEKGQKMSKSKGNVIDPLEMVERYGADALRFALIYLATGGQDIRLDLRWLEMARNFANKLYNAARFVLLSREGFQAKEDTPTLADRFMRSRLSRGVEEITALYEALDLAQAAREVYELVWSEFCDWYLEAAKPALKAGNAHTLRTLEEVLAVLLKLLHPMMPFLTSELYQALTGKEELALEAWPEPGGRDEEAERAFEALKQAVTAVRALKAEAGLPPAQEVRVYLEGETAPVEENLEVFRFLSRADLLPERPAKALVKAMPRVTARMPLEGLLDVEEWRRRQEKRLKELLALAERSQRKLASPGFREKAPKEVVEAEEARLKENLEQAERIREALSQIG”, the “soluble on expression in E. coli” value is listed as “soluble”.
The entry for “MDLSTGVPVSIQLKTIVQQGNEQKDFFFDLEGQLVKMGDTLYIRYKEELLEDTEPTPVTIKIEPDGHVQLIRAGELRMRLRFGYQEKLDTSYRTPYGLLQISTFTHNLRVSLKDQPMSGKILVDYDLYSQTERIGEYHLELEFTA” is “not soluble”.
To “MDMNFDLYMNGVVEQARNEIESAGYEQLTTAEDVDKVLKQDGTTLVMINSVCGCAGGIARPAASHALHYDVLPDRLVTVFAGQDKEATQRAREYFEGYAPSSPSFALVKDGKITEMIERHQIEGHDVMNVINQLQTLFNKYCEERLEHHHHHH” belongs “soluble”; to “MDNLVWDGIPDIRTLDQTIRKHAHPLNLIVCLPDNQIPDFQTAQDASDSECRLKHRLDQATQCLQFDSINLIEHILPDVRFWLVPPSRTRRLHEHFHHISWQTEAIPQTESKSDKPWFALPQTSERKKPEHVLVIGAGIAGASTAHALASHGISVTVLEARKAAQAASGNRQGLLYAKISPHDTGQTELLLAGYGYTKRLLGHILPDSDTWGGNGIIHLNYSRTEQQRNHELGLQKHHNHLYRSITSAEAEKIAGIPLNTPYAEPLCGLYWQHGVWLNPPAFVRTLLSHPLIELYENTTLTGISHDGEKWIASTPNGTFTATHIIYCTGAHSPCLPETNLAALPLRQIRGQTGLTPSTPFSEQLRCAVSGESYISPSWHGLHCYGASFIPNSSNTGWNEAEEASNRQALAHLNPALAESLFAANPNPQKHQGHAAIRCDSPDHLPVVGALGDIAAMRQTYAKLALDKNYRIDTTCPYLPNAYTNTAHGTRGLATAPICAAAVAAEILGLPHLFSQRLRHALHPNRTVIRAIVRRQNLIPLEHHHHHH”, “soluble”; to “MDNPSKEIDLLLQSSYDMTILTKQGEYNVDSMLSRAHHVASRISSMYKYEKLLQDMQDLTVNGNRRKLILNDLQRENKQIMALQDENRQLRETTQEYLATMRNILDSHAEIEGSIEMGQMNSDIDDADIDRIIFEMANTDQEARLKKKALEMELMMDDLEKMRKEEYQELQLAVQRNKNYKELFKLACFSNQSANSILNSAMKIISEGDGFDDDEAQENEDLNETIIHKKQ”, “not soluble”.

The values are drawn from the DeepSol protein solubility set.
